Reference: the supplement of paper PMC7877785
± gives the uncertainty stated by the source.

Test: self-splicing fitness, log relative to wild type (ln ratio); higher = more splicing; Tetrahymena group I intron in knt gene, E. coli kanamycin selection, DiMSum; sequences stand for … in CUCUCU…GGAGGGAAAAGUUAUCAGGCAUGCACCUGGUAGCUAGUCUUUAAACCAAUAGAUUGCAUCGGUUUAAAAGGCAAGACCGUCAAAUUGCGGGAAAGGGGUCAACAGCCGUUCAGUACCAAGUCUCAGGGGAAACUUUGAGAUGGCCUUGCAAAGGGUAUGGUAAUAAGCUGACGGACAUGGUCCUAACCACGCAGCCAAGUCCUAAGUCAACAGAUCUUCUGUUGAUAUGGAUGCAGUUCACAGACUAAAUGUCGGUCGGGGAAGAUGUAUUCUUCUCAUAAGAUAUAGUCGGACCUCUCCUUAAUGGGAGCUAGCGGAUGAAGUGAUGCAACACUGGAGCCGCUGGGAACUAAUUUGUAUGCGAAAGUAUAUUGAUUAGUUUUGGAGUACUCGUGGUCG
How it was run: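 Pooled colonies went to amplicon sequencing on an Illumina HiSeq 2500 after six replicate transformations. The plates were LB agar with 100 μg/mL carbenicillin, 50 μM IPTG and 0.2% rhamnose, with or without 25 μg/mL kanamycin, incubated overnight at 37°C or 30°C. The E. coli BL21(DE3) library had all eight P1ex-region intron nucleotides randomised, the intron placed in the knt kanamycin-resistance gene on pET-22b(+). DiMSum fitness is the error-weighted combination of replicate fold changes, kanamycin against none, normalised to wild type.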

| Sequence | self-splicing fitness (ln) (30 °C) | self-splicing fitness (ln) (37 °C) |
| --- | --- | --- |
| ACUAAGCAAUAUUACGGCGA | -0.131 ± 0.1 | -0.411 ± 0.13 |
| ACUAAGCAAUAUUACGGCGU | -0.894 ± 0.078 | -0.0271 ± 0.1 |
| ACUAAGCAAUAUUACGGGGU | -4.13 ± 0.28 | -2.2 ± 0.19 |
| ACUAAGCAAUAUUACGGGUA | -1.77 ± 0.11 | -0.856 ± 0.11 |
| ACUAAGCAAUAUUACGUCAG | -2.63 ± 0.16 | -1.57 ± 0.23 |
| ACUAAGCAAUAUUACGUGCG | -0.891 ± 0.086 | -0.294 ± 0.098 |
| ACUAAGCAAUAUUACGUGGA | -2.99 ± 0.14 | -1.49 ± 0.11 |
| ACUAAGCAAUAUUACGUUGU | -3.58 ± 0.16 | -2.78 ± 0.18 |
| ACUCAGCAAUAUUACGAAAA | -1.32 ± 0.11 | -1.36 ± 0.16 |
| ACUCAGCAAUAUUACGAACC | -0.758 ± 0.097 | -0.326 ± 0.1 |
| ACUCAGCAAUAUUACGAAUG | -1.17 ± 0.11 | -0.992 ± 0.15 |
| ACUCAGCAAUAUUACGACGC | -0.134 ± 0.074 | 0.447 ± 0.088 |
| ACUCAGCAAUAUUACGACUA | -0.633 ± 0.12 | -0.128 ± 0.12 |
| ACUCAGCAAUAUUACGAGCC | -1.32 ± 0.079 | -0.908 ± 0.11 |
| ACUCAGCAAUAUUACGAGCG | -0.49 ± 0.061 | -0.185 ± 0.071 |
| ACUCAGCAAUAUUACGAUGU | -1.35 ± 0.064 | -0.811 ± 0.074 |
| ACUCAGCAAUAUUACGAUUG | -2.74 ± 0.084 | -1.59 ± 0.1 |
| ACUCAGCAAUAUUACGCACU | -0.199 ± 0.064 | 0.205 ± 0.079 |
| ACUCAGCAAUAUUACGCGAG | -2.93 ± 0.2 | -1.21 ± 0.17 |
| ACUCAGCAAUAUUACGCGGA | -2.79 ± 0.16 | -3.35 ± 0.27 |
| ACUCAGCAAUAUUACGCUAG | -1.74 ± 0.094 | -1.3 ± 0.11 |
| ACUCAGCAAUAUUACGCUGG | -2.43 ± 0.12 | -2.86 ± 0.22 |
| ACUCAGCAAUAUUACGGAAC | -1.64 ± 0.12 | -1.76 ± 0.19 |
| ACUCAGCAAUAUUACGGAGG | -2.28 ± 0.13 | -1.35 ± 0.17 |

| Sequence | self-splicing fitness (ln) (30 °C) | self-splicing fitness (ln) (37 °C) |
| --- | --- | --- |
| ACUCAGCAAUAUUACGUAAA | -1.36 ± 0.069 | -0.79 ± 0.09 |
| ACUCAGCAAUAUUACGUAAC | -2.79 ± 0.14 | -1.2 ± 0.16 |
| ACUCAGCAAUAUUACGUACA | -1.74 ± 0.1 | -0.876 ± 0.1 |
| ACUCAGCAAUAUUACGUCAU | -1.29 ± 0.068 | -0.61 ± 0.088 |
| ACUCAGCAAUAUUACGUCCU | -1.18 ± 0.094 | 0.185 ± 0.11 |
| ACUCAGCAAUAUUACGUUUU | -2.1 ± 0.048 | -0.817 ± 0.061 |
| ACUGAGCAAUAUUACGACAG | -0.882 ± 0.091 | -0.105 ± 0.12 |
| ACUGAGCAAUAUUACGACGG | -1.08 ± 0.1 | -0.161 ± 0.13 |
| ACUGAGCAAUAUUACGAGUA | – | -1.6 ± 0.2 |
| ACUGAGCAAUAUUACGCAAC | -3.87 ± 0.31 | – |
| ACUGAGCAAUAUUACGCAUG | -1.95 ± 0.14 | -2.23 ± 0.16 |
| ACUGAGCAAUAUUACGCCUC | -2.32 ± 0.31 | – |
| ACUGAGCAAUAUUACGCGUC | -4.21 ± 0.29 | -2.35 ± 0.21 |
| ACUGAGCAAUAUUACGCUGA | -2.19 ± 0.47 | -1.2 ± 0.34 |
| ACUGAGCAAUAUUACGCUUC | -3.57 ± 0.24 | -3.1 ± 0.28 |
| ACUGAGCAAUAUUACGGAUG | -2.58 ± 0.12 | -1.67 ± 0.14 |
| ACUGAGCAAUAUUACGGAUU | -3.91 ± 0.27 | -1.59 ± 0.16 |
| ACUGAGCAAUAUUACGGCGA | -1.87 ± 0.099 | -1.19 ± 0.11 |
| ACUGAGCAAUAUUACGGCUU | -3.22 ± 0.21 | -3.27 ± 0.4 |
| ACUGAGCAAUAUUACGGGGC | -4.03 ± 0.33 | -1.57 ± 0.22 |
| ACUGAGCAAUAUUACGUAUG | -3.4 ± 0.15 | -1.08 ± 0.14 |
| ACUGAGCAAUAUUACGUCCA | -3.1 ± 0.36 | -2 ± 0.4 |
| ACUGAGCAAUAUUACGUCCG | -2.79 ± 0.17 | -1.58 ± 0.17 |
| ACUGAGCAAUAUUACGUGGA | -2.94 ± 0.2 | -2.88 ± 0.2 |

| Sequence | self-splicing fitness (ln) (30 °C) | self-splicing fitness (ln) (37 °C) |
| --- | --- | --- |
| ACUGAGCAAUAUUACGUUCA | -3.87 ± 0.28 | -1.55 ± 0.2 |
| ACUGAGCAAUAUUACGUUGA | -3.25 ± 0.15 | -2.48 ± 0.15 |
| ACUGAGCAAUAUUACGUUUG | -3.97 ± 0.21 | -2.53 ± 0.18 |
| ACUGAGCAAUAUUACGUUUU | -4.25 ± 0.26 | -2.07 ± 0.18 |
| ACUUAGCAAUAUUACGACUA | -1.81 ± 0.17 | -0.513 ± 0.14 |
| ACUUAGCAAUAUUACGACUG | -1.53 ± 0.099 | -0.694 ± 0.16 |
| ACUUAGCAAUAUUACGAGUG | -1.17 ± 0.12 | -1.58 ± 0.13 |
| ACUUAGCAAUAUUACGAUCC | -1.9 ± 0.15 | -0.595 ± 0.2 |
| ACUUAGCAAUAUUACGCCAA | -3.19 ± 0.29 | -2.17 ± 0.28 |
| ACUUAGCAAUAUUACGCCCA | -1.29 ± 0.21 | -0.528 ± 0.22 |
| ACUUAGCAAUAUUACGCUCG | -0.969 ± 0.1 | -0.233 ± 0.16 |
| ACUUAGCAAUAUUACGCUUU | -1.69 ± 0.088 | -1.42 ± 0.14 |
| ACUUAGCAAUAUUACGGAAC | -3.24 ± 0.19 | -1.07 ± 0.34 |
| ACUUAGCAAUAUUACGGCGA | -1.21 ± 0.21 | -0.343 ± 0.21 |
| ACUUAGCAAUAUUACGGCUC | -0.897 ± 0.061 | -0.503 ± 0.077 |
| ACUUAGCAAUAUUACGGGCG | -0.769 ± 0.078 | -0.483 ± 0.085 |
| ACUUAGCAAUAUUACGGGUC | -3.35 ± 0.13 | -3.27 ± 0.2 |
| ACUUAGCAAUAUUACGGGUG | -1.14 ± 0.059 | -0.754 ± 0.085 |
| ACUUAGCAAUAUUACGGUCG | -2.52 ± 0.17 | -1.35 ± 0.2 |
| ACUUAGCAAUAUUACGUCCG | -2.09 ± 0.2 | -0.774 ± 0.25 |
| ACUUAGCAAUAUUACGUCUA | -1.67 ± 0.16 | -1.83 ± 0.17 |
| ACUUAGCAAUAUUACGUGUG | -2.2 ± 0.09 | -1.06 ± 0.087 |
| ACUUAGCAAUAUUACGUUGC | -3.9 ± 0.38 | -1.8 ± 0.26 |
| ACUUAGCAAUAUUACGUUGU | -2.9 ± 0.15 | -2.12 ± 0.15 |

| Sequence | self-splicing fitness (ln) (30 °C) | self-splicing fitness (ln) (37 °C) |
| --- | --- | --- |
| AGAAAGCAAUAUUACGAAGA | -2.95 ± 0.24 | -2.27 ± 0.33 |
| AGAAAGCAAUAUUACGACGG | -2.82 ± 0.24 | -0.965 ± 0.29 |
| AGAAAGCAAUAUUACGAGCG | -1.21 ± 0.095 | -0.574 ± 0.13 |
| AGAAAGCAAUAUUACGAUAA | -1.21 ± 0.054 | -0.539 ± 0.073 |
| AGAAAGCAAUAUUACGAUCG | -0.0642 ± 0.072 | -0.026 ± 0.091 |
| AGAAAGCAAUAUUACGAUUA | -0.175 ± 0.12 | -0.183 ± 0.15 |
| AGAAAGCAAUAUUACGCACG | -0.407 ± 0.18 | -0.88 ± 0.22 |
| AGAAAGCAAUAUUACGCAGC | -2.92 ± 0.2 | -2.33 ± 0.2 |
| AGAAAGCAAUAUUACGCAUA | -2.44 ± 0.16 | -1.19 ± 0.16 |
| AGAAAGCAAUAUUACGCCAG | -2.29 ± 0.2 | -0.433 ± 0.17 |
| AGAAAGCAAUAUUACGCCUA | -1.36 ± 0.14 | -1.04 ± 0.17 |
| AGAAAGCAAUAUUACGCGAG | -1.28 ± 0.11 | -0.453 ± 0.13 |
| AGAAAGCAAUAUUACGCGCG | -0.0244 ± 0.1 | -0.00454 ± 0.14 |
| AGAAAGCAAUAUUACGCUAU | -2.98 ± 0.18 | -1.62 ± 0.18 |
| AGAAAGCAAUAUUACGGAGG | -3.33 ± 0.16 | -2.72 ± 0.3 |
| AGAAAGCAAUAUUACGGCCG | -0.348 ± 0.11 | -0.28 ± 0.14 |
| AGAAAGCAAUAUUACGGGAC | -3.06 ± 0.26 | -2 ± 0.32 |
| AGAAAGCAAUAUUACGGUAU | -2.66 ± 0.14 | -0.578 ± 0.12 |
| AGAAAGCAAUAUUACGGUUA | -0.628 ± 0.1 | -0.679 ± 0.083 |
| AGAAAGCAAUAUUACGUACC | -0.284 ± 0.087 | 0.446 ± 0.12 |
| AGAAAGCAAUAUUACGUAGC | -4.04 ± 0.22 | -2.5 ± 0.2 |
| AGAAAGCAAUAUUACGUAGU | -2.98 ± 0.15 | -1.55 ± 0.1 |
| AGAAAGCAAUAUUACGUAUC | -3.62 ± 0.3 | -2.34 ± 0.24 |
| AGAAAGCAAUAUUACGUCAA | -1.61 ± 0.11 | -0.692 ± 0.1 |
